Legend:
[1] = substrate: CCOC1C=CC=C(C(=O)O)C1N; assay: purified protein; assay type: biochemical, Pseudomonas fluorescens; conditions: 50 mM sodium phosphate pH 7.5, 1% DMSO, 25 °C, 1000 nM PhzF, racemic substrate
[2] = substrate: N[C@H]1C(C(=O)O)=CC=C[C@@H]1O; assay: purified protein; assay type: biochemical, Pseudomonas fluorescens; conditions: 50 mM sodium phosphate pH 7.5, 1% DMSO, 25 °C
[3] = 200 nM PhzF, labelled compound (deuterated at C3)

B1: PhzF (Pseudomonas fluorescens) (protein)
chain: MHNYVIIDAFASVPLEGNPVAVFFDADDLPPAQMQRIAREMNLSESTFVLKPRNGGDALIRIFTPVNELPFAGHPLLGTAIALGAHTDNHRLYLETQMGTIAFELERQNGSVIAASMDQPIPTWTALGRDAELLKALGISDSTFPIEIYHNGPRHVFVGLPSIDALSALHPDHRALSNFHDMAINCFAGAGRRWRSRMFSPAYGVVEDAATGSAAGPLAIHLARHGQIEFGQPVEILQGVEIGRPSLMFAKAEGRAEQLTRVEVSGNGVTFGRGTIVL
notes: N-terminal His6 tag, expressed in E. coli, homodimer
[1]
  Km: 1842 ± 355 µM
  kcat: 0.12 ± 0.02 s⁻¹
[2]; 40 nM PhzF dimer
  Km: 517 ± 57 µM
  kcat: 3.23 ± 0.19 s⁻¹
[2]; [3]
  Km: 311 ± 14 µM
  kcat: 0.34 ± 0.01 s⁻¹

— article PMC5524880, “Mechanisms and Specificity of Phenazine Biosynthesis Protein PhzF” (Scientific Reports, 2017)
